Entries after “also recorded” stand apart in the source; their conditions may differ.
Experiment: Safety and tolerability (TEAEs, DLTs, AESIs) in phase 1 dose-escalation study of teliso‐v
Type: in vivo, human
Conditions: for Dose‐limiting toxicity (DLT) events: 2.4 and 2.7 mg/kg IV Q3W, dose escalation
Procedure: This phase 1, open‐label, dose‐escalation clinical trial was conducted at two sites in Japan (NCT03311477). Enrollment began on November 6, 2017, and the trial was completed on March 4, 2019.
Escalation into the higher dose level proceeded if the first three evaluable patients in the lower dose level completed the first‐cycle (for at least 21 days) safety assessment without experiencing a dose‐limiting toxicity (DLT). DLT evaluations for dose escalation and determination of RP2D were carried out by investigators, study sponsor, and an independent safety monitor. […] No premedication was required. On the basis of confirmed availability of archival tumor tissue at enrollment, patients were retrospectively analyzed for c‐Met expression and MET amplification. c‐Met expression was determined by immunohistochemistry (IHC), and MET amplification was determined by fluorescence in situ hybridization or sequencing of plasma or tumor DNA.
Safety assessments included treatment‐emergent adverse events (TEAEs) graded according to the National Cancer Institute Common Terminology Criteria for Adverse Events version 4.03. TEAEs, vital signs, physical examinations, electrocardiograms, laboratory tests, and ECOG performance status were monitored during the study. Any grade ≥3 study drug‐related nonhematologic toxicity was documented as a DLT, except as follows: grade 3 nausea or vomiting lasting ≤48 hours that was successfully managed with antiemetics; grade 3 diarrhea successfully managed with antidiarrheal; grade 3 constipation lasting ≤7 days; grade 3 acute infusion reaction that resolved to grade ≤1 within 24 hours after the end of dosing; grade 3 and 4 laboratory tests including but not limited to lactate dehydrogenase, alkaline phosphatase, and gamma‐glutamyl transferase that were considered nonclinically significant by the investigator; liver function test abnormalities; grade 3 and 4 electrolyte imbalance unless associated with clinical symptomatology despite supplementation; and grade 3 hyperglycemia that was manageable without hospitalization. The following hematologic toxicities were documented as a DLT: any grade 4 hematologic toxicity (excluding febrile neutropenia or leukopenia lasting for ≤7 days, or lymphopenia); anemia requiring red blood cell transfusion; thrombocytopenia requiring platelet transfusion; grade 3 thrombocytopenia in the presence of grade ≥2 bleeding; and grade ≥3 febrile neutropenia. Toxicity management criteria are described in the Supplementary appendix.
All data were summarized and tabulated by dose cohort. Categoric data were summarized in terms of frequency counts and percentages. Continuous data were summarized using descriptive statistics, including number of observations, mean, standard deviation, median, minimum, and maximum. No formal statistical analysis was performed for efficacy variables, which were all exploratory in nature. ORR was defined as the proportion of patients with a confirmed partial response (PR) or complete response (CR). Duration of response was defined as time from a patient's initial objective response to the first date of disease progression (PD) or death. The overall disease control rate was defined as the proportion of patients with CR, PR, or stable disease (SD). […] PFS was estimated using the Kaplan–Meier method. Efficacy analyses are presented with two‐sided exact 95% binomial CI.

[1] = total, N = 9, listed as teliso-v
[2] = total, N = 9, listed as telisotuzumab vedotin
[3] = total, N = 9, listed as teliso‐v

Teliso‐v: antibody‐drug conjugate: anti–c‐Met humanized monoclonal antibody ABT‐700 coupled to monomethyl auristatin E through a valine‐citrulline linker, drug:antibody ratio approximately three
Dose‐limiting toxicity (DLT) events: no DLTs were reported; also recorded: no DLTs observed
Dose‐limiting toxicity (DLT) events (listed as telisotuzumab vedotin): no dose‐limiting toxicity events were observed
Hematologic AEs (AESI) (2.4‐mg/kg dose level): 33%
Peripheral neuropathy events (AESI) (2.4‐mg/kg dose level): three
Hematologic AEs (AESI) (2.7‐mg/kg dose level): 67%
Ocular AESIs (2.7‐mg/kg dose level): three
Peripheral neuropathy events (AESI) (2.7‐mg/kg dose level): three
Frequency of corneal epithelium disorder (Japanese patients, four of nine): 44.4%
AEs leading to withdrawal of consent (N = 9): three
Dry eye (ocular AESI) (N = 9): one
Keratitis (ocular AESI) (N = 9): one
Patients with at least one TEAE (N = 9): nine
Patients with at least one TEAE related to teliso‐v (N = 9): nine
Patients with serious AEs (N = 9): two
Punctate keratitis (ocular AESI) (N = 9): two
Serious AEs, number of events (N = 9): Three
Visual impairment (ocular AESI) (N = 9): one
Maximum tolerated dose (doses up to 2.7 mg/kg Q3W, 3 + 3 design): not reached
Deaths (either dose level): No deaths were reported
Recommended phase 2 dose (RP2D) (every 3 weeks, Japanese patients): 2.7 mg/kg
Ocular AESIs (grade 1 or 2, total, N = 9): 44%
TEAE leading to treatment discontinuation (grade 2, teliso‐v related serious AE, 2.7‐mg/kg dose level): gait disturbance
Peripheral neuropathy events (AESI) (grades 1 and 2, total, N = 9): 67%
Alanine aminotransferase increased, TEAE regardless of relationship (total, N = 9): 2 (22) n (%)
Alanine aminotransferase increased, TEAE related to teliso‐v (total, N = 9): 2 (22) n (%)
Alopecia, TEAE regardless of relationship (total, N = 9): 2 (22) n (%)
Alopecia, TEAE related to teliso‐v (total, N = 9): 2 (22) n (%)
Anemia, TEAE regardless of relationship (total, N = 9): 2 (22) n (%)
Aspartate aminotransferase increased, TEAE regardless of relationship (total, N = 9): 2 (22) n (%)
Aspartate aminotransferase increased, TEAE related to teliso‐v (total, N = 9): 2 (22) n (%)
Back pain, TEAE regardless of relationship (total, N = 9): 2 (22) n (%)
Constipation, TEAE regardless of relationship (total, N = 9): 2 (22) n (%)
Decreased weight, TEAE regardless of relationship (total, N = 9): 33%
Decreased white blood cell count, TEAE regardless of relationship (total, N = 9): 33%
Decreased white blood cell count, TEAE related to teliso‐v (total, N = 9): 33%
Diarrhea, TEAE regardless of relationship (total, N = 9): 2 (22) n (%)
Fatigue, TEAE regardless of relationship (total, N = 9): 2 (22) n (%)
Fatigue, TEAE related to teliso‐v (total, N = 9): 2 (22) n (%)
Hypoalbuminemia, TEAE regardless of relationship (total, N = 9): 2 (22) n (%)
Malaise, TEAE regardless of relationship (total, N = 9): 2 (22) n (%)
Malaise, TEAE related to teliso‐v (total, N = 9): 2 (22) n (%)
Neutrophil count decreased, TEAE regardless of relationship (total, N = 9): 2 (22) n (%)
Neutrophil count decreased, TEAE related to teliso‐v (total, N = 9): 2 (22) n (%)
Peripheral neuropathy, TEAE regardless of relationship (total, N = 9): 2 (22) n (%)
Peripheral neuropathy, TEAE related to teliso‐v (total, N = 9): 2 (22) n (%)
Punctate keratitis, TEAE regardless of relationship (total, N = 9): 2 (22) n (%)
Punctate keratitis, TEAE related to teliso‐v (total, N = 9): 2 (22) n (%)
Weight decreased, TEAE regardless of relationship (total, N = 9): 3 (33) n (%)
Weight decreased, TEAE related to teliso‐v (total, N = 9): 2 (22) n (%)
White blood cell count decreased, TEAE regardless of relationship (total, N = 9): 3 (33) n (%)
White blood cell count decreased, TEAE related to teliso‐v (total, N = 9): 3 (33) n (%)
Decreased appetite, TEAE regardless of relationship [1]: 3 (33) n (%)
Nausea, TEAE regardless of relationship [1]: 3 (33) n (%)
Peripheral sensory neuropathy, TEAE regardless of relationship [1]: 4 (44) n (%)
Decreased appetite, TEAE related to teliso‐v [2]: 33%
Nausea, TEAE related to teliso‐v [2]: 33%
Peripheral sensory neuropathy, TEAE related to teliso‐v [2]: 44%
Decreased appetite, TEAE regardless of relationship [3]: 33%
Decreased appetite, TEAE related to teliso‐v [3]: 3 (33) n (%)
Nausea, TEAE regardless of relationship [3]: 33%
Nausea, TEAE related to teliso‐v [3]: 3 (33) n (%)
Peripheral sensory neuropathy, TEAE regardless of relationship [3]: 44%
Peripheral sensory neuropathy, TEAE related to teliso‐v [3]: 4 (44) n (%)
